Experimental data as given in US20140369940A1 (Biogen, published 2014).
Ends that are not written are not given here.

B1: recombinant human monoclonal antibody NI-202.12F4 (antibody, V domains shown)
VH: EVQLVQSGGGLVEPGGSLRLSCAVSGFDFEKAWMSWVRQAPGQGLQWVARIKSTADGGTTSYAAPVEGRFIISRDDSRNMLYLQMNSLKTEDTAVYYCTSAHWGQGTLVTVSS
VL: QSVLTQPPSVSVSPGQTARITCSGEALPMQFAHWYQQRPGKAPVIVVYKDSERPSGVPERFSGSSSGTTATLTITGVQAEDEADYYCQSPDSTNTYEVFGGGTKLTVL
notes: Lambda light chain; HEK293 or CHO conditioned medium
B2: recombinant human monoclonal antibody NI-202.21D11 (antibody, V domains shown)
VH: EVQLVESGAEVKKPGASVKVSCKASGYTFTNYAMHWVRQAPGQRLEWMGWINAGNGKRKYSQKFQDRVTINRDTSASTIYMELSSLGSEDTAVYYCAREEDHAGSGSYLSMDVWGQGTLVTVSS
VL: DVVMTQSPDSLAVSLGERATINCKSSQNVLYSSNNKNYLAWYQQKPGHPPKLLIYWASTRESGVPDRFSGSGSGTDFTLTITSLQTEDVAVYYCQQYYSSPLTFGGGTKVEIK
notes: Expressed recombinantly in HEK293 or CHO cells as a complete antibody (methods: human IgG1 or chimeric mouse IgG2a constant regions); conditioned medium used directly unless otherwise stated

Experiments:
[1] = target: T1, recombinant human β-synuclein (wt) (human, UniProt Q16143 1-134); assay: direct ELISA
T1 construct: also called wt β-synuclein
T1 sequence (Q16143 whole entry): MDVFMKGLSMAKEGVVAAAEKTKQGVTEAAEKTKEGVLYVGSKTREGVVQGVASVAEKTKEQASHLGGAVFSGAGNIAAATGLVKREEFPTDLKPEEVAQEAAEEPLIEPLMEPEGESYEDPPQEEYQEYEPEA

[2] = target: T2, human α-synuclein pepscan peptide A02 (residues 5-20) (human, also: C-terminally coupled via flexible linker to cellulose membrane); assay: pepscan, immunoblotting
T2 construct: Printed as residues 5-20, although a 15-mer with 11 residues overlap to A01 would be 5-19
T2 peptide: MKGLSKAKEGVVAAAE
Experimental: A membrane that comprises a total of 33 peptides was rinsed in methanol and then blocked with Rotiblock (Roth, Karlsruhe, Germany). The membrane was incubated with indicated antibodies diluted in blocking solution and then with horse radish peroxidase (HRP)-labeled secondary antibody for 1 hr. Between incubations the membrane was washed 3× with PBS-T for 5 min. The membrane was then developed using ECL plus Western Blotting Detection Reagents (GE Healthcare).
Adjacent peptides share an overlap of 11 residues and peptides were C-terminally spotted to a cellulose support membrane.

[3] = target: T3, synthetic biotinylated α-synuclein peptide 5-30 (human, biotinylated (position not given)); assay: in-solution ELISA, antibody coated at 2 µg/ml, biotinylated peptide
T3 construct: also called α-synuclein 5-30

[4] = target: recombinant α-synuclein truncation aa 1-60 (human, UniProt P37840 1-60); assay: direct ELISA

Binder | binding result [1] | binding result [2] | binding result [3] | binding result [4]
B1 | no binding | no binding | no binding | –
B2 | – | – | – | no binding (tested: coated at 2 ug/ml)
